Results taken from PMC4381287, “Structural characterization of the late competence protein ComFB from Bacillus subtilis” (Bioscience Reports, 2014).

Target: the molecule itself
Assay: SEC; Superdex75 10/300 column, calibrated with standards of known molecular weight; wild type and variants at similar concentrations

B1: late competence protein ComFB from Bacillus subtilis, N-terminally 6xHis-tagged, wild type (natural protein, B. subtilis)
chain: MLVNSKEIVMKELLDRYMDQLHMACTCQVCQNDVLALSLNKVSPSYVTDFKKIAYTKAELVDKQKNTAMLVILAESAAVVSESPSDLCQTKQEEAFIN
notes: ComFB, second protein of the comF operon of Bacillus subtilis, amplified from chromosomal DNA of strain PY79; the purified tagged monomer is 13.5 kDa; the crystal model holds residues 1-91 (chain A); By LC-ESI MS the first methionine is removed; Each subunit holds one Zn2+ ion (C25, C27, C30, C88); The histidine tag was uncleaved in the crystals; also called His6-ComFB; native ComFB; source: E. …
- stoichiometry N: 2
